Results as given in the RNAGym collection of RNA variant scans (doi:10.1101/gr.219683.116).

B1: mRNA-splicing (parent)
chain: AGUUGCUGCUGGGAGCUCCAGCACAGUGAAAUGGACAGAAGGGCAGAGCAA

Variants of: B1
Experiment: exon inclusion enrichment index; higher = more inclusion; WT1 exon 5 minigene, HEK293

| Variant | exon inclusion enrichment index |
| --- | --- |
| AGUGCUUCUCGGGAGCUCCAGCACAGUGAAAUGGACAGAAGGGCAGAGCAA [U4G G5C C6U G8C C9U U10C] | 1.14 |
| AGUUCAGUCAGGGAGCUCCAGCACAGUGAAAUGGACAGAAGGGCAGAGCAA [G5C C6A U7G G8U U10A] | 0.00932 |
| AGUUGACGACGAAAGCUCCAGCACAGUGAAAUGGACAGAAGGGCAGAGCAA [C6A U7C C9A U10C G12A G13A] | 2.17 |
| AGUUGACGACGGGAGCUCCAGCACAGUGAAAUGGACAGAAGGGGUGAGCAA [C6A U7C C9A U10C C44G A45U] | 3.12 |
| AGUUGACGACGGGAGCUCCAGCACAGUGAAAUGGACCAAAGGGCAGAGCAA [C6A U7C C9A U10C A37C G38A] | 2.46 |
| AGUUGGAGAAGGGAGCUCCAGCACAGUGAAAUGGACAGAAGGGCAGAGCAA [C6G U7A C9A U10A] | 0.321 |
| AGUUGACGACGGGAGCUCCAGCACAGUGAAUUGGACAGAAGGGCAGAGCAA [C6A U7C C9A U10C A31U] | 3.04 |
| AGUUCUUCUCCCGAGCUCCAGCACAGUGAAAUGGACAGAAGGGCAGAGCAA [G5C C6U G8C C9U U10C G11C G12C] | 0.631 |
| AGUUCUUCUCGGGAGCUCCAGCAAUGUGAAAUGGACAGAAGGGCAGAGCAA [G5C C6U G8C C9U U10C C24A A25U] | 1.94 |
| AGUUCGCGCCGGGAGCUCCAGCACAGUGUAAUGGACAGAAGGGCAGAGCAA [G5C C6G U7C U10C A29U] | 1.68 |
| AGUUGAAGAAGGGAGCUCCAGCACAGUGAAAUGGACAGAAGGCAAGAGCAA [C6A U7A C9A U10A G43C C44A] | 2.09 |
| AUAUGACGACGGGAGCUCCAGCACAGUGAAAUGGACAGAAGGGCAGAGCAA [G2U U3A C6A U7C C9A U10C] | 4.33 |
| AGUUUCUUUUGGGAGCUCCAGCACAGUGACUUGGACAGAAGGGCAGAGCAA [G5U G8U C9U A30C A31U] | 0.139 |
| AGUUUCUUUUGGGAGCUCCAGCACAGGUAAAUGGACAGAAGGGCAGAGCAA [G5U G8U C9U U27G G28U] | 0.000678 |
| AGUUGCUGCUGGGAGCUCCAGCACAGUGAACCGGACAGAAGGGCAGAGCAA [A31C U32C] | 0.643 |
| AGUUCUUCUCGGGAGCUCCAGCACAGCAAAAUGGACAGAAGGGCAGAGCAA [G5C C6U G8C C9U U10C U27C G28A] | 1.89 |
| AGUUACCACCGGGAGCUCCAGCACAGUGAAAUGGACAGAAGGGCCUAGCAA [G5A U7C G8A U10C A45C G46U] | 1.12 |
| AGUUCUUCUCAUGAGCUCCAGCACAGUGAAAUGGACAGAAGGGCAGAGCAA [G5C C6U G8C C9U U10C G11A G12U] | 0.314 |
| AGUUCGCGCCGGGAGCUCCAGCACAGUGAAAUGGACAGAAGGGCACGGCAA [G5C C6G U7C U10C G46C A47G] | 3.52 |
| AGUUCUUCUCGGGAGCUCCAGCACAGUGCUAUGGACAGAAGGGCAGAGCAA [G5C C6U G8C C9U U10C A29C A30U] | 1.18 |
| AGUUCUUCUCGGUCGCUCCAGCACAGUGAAAUGGACAGAAGGGCAGAGCAA [G5C C6U G8C C9U U10C G13U A14C] | 0.936 |
| AGUUAGGGAUGGGAGCUCCAGCACGCUGAAAUGGACAGAAGGGCAGAGCAA [G5A C6G U7G C9A A25G G26C] | 0.0234 |
| AGUUCGCGCCGGGAGCUCCAGCACAGUGAAAUGCACAGAAGGGCAGAGCAA [G5C C6G U7C U10C G34C] | 1.79 |
| AGUUACCACCGGGAGCUCCAGCACAGUGAAAUGGACAGAAUAGCAGAGCAA [G5A U7C G8A U10C G41U G42A] | 0.909 |
| AGUUGAAGAAGGGAGCUCCAGCACACUGAAAUGGACAGAAGGGCAGAGCAA [C6A U7A C9A U10A G26C] | 1.1 |
| AGUUCGCGCCGGGAGCUCCAGCACAGUGAAAUGGACAGCAGGGCAGAGCAA [G5C C6G U7C U10C A39C] | 1.45 |

| Variant | exon inclusion enrichment index |
| --- | --- |
| AGUUAGGGAUGGGAGCUCCAGAUCAGUGAAAUGGACAGAAGGGCAGAGCAA [G5A C6G U7G C9A C22A A23U] | 0.00131 |
| AGUUCGCGCCGGGAGCUCCAGCACAGCGAAAUGGACAGAAGGGCAGAGCAA [G5C C6G U7C U10C U27C] | 4.97 |
| AGUUCUUCUCGGGAGCUCCAGCACAAAGAAAUGGACAGAAGGGCAGAGCAA [G5C C6U G8C C9U U10C G26A U27A] | 1.96 |
| AGUUAGGGAUGGGAGCUCCAGCUGAGUGAAAUGGACAGAAGGGCAGAGCAA [G5A C6G U7G C9A A23U C24G] | 0.000949 |
| AGUUAGGGAUGGGAGCUCCAGCACAGUGAAAUGGACACGAGGGCAGAGCAA [G5A C6G U7G C9A G38C A39G] | 0.00244 |
| AGUUAGGGAUGGGAGCUCCAGCACAGUGAAAUGGACACCAGGGCAGAGCAA [G5A C6G U7G C9A G38C A39C] | 0.00466 |
| AGUUCGCGCCGGGAGCUCCAGCAAGGUGAAAUGGACAGAAGGGCAGAGCAA [G5C C6G U7C U10C C24A A25G] | 3.65 |
| AGUUGCUGCUGGGAGCUCCGACACAGUGAAAUGGACAGAAGGGCAGAGCAA [A20G G21A] | 2.89 |
| AGUUGACGACGGGAGCUCCAGCACAGUGAAAUGUCCAGAAGGGCAGAGCAA [C6A U7C C9A U10C G34U A35C] | 1.5 |
| AGUUGACGACGGGAGCUCCAGCACAGUGAAAUGGACUCAAGGGCAGAGCAA [C6A U7C C9A U10C A37U G38C] | 2.21 |
| AGUUGAAGAAGGGAGCUCCAGCACAGUGAAAUAGACAGAAGGGCAGAGCAA [C6A U7A C9A U10A G33A] | 0.0584 |
| AGUUAGAGAAGGGAGCUCCAGCACAGUGAAAUGGACAGAAGGGCAGAGCAA [G5A C6G U7A C9A U10A] | 0.0116 |
| AGUUCUUCUCGGGAGCUCCAGCAUAGUGAAAUGGACAGAAGGGCAGAGCAA [G5C C6U G8C C9U U10C C24U] | 0.544 |
| AGCCCUUCUCGGGAGCUCCAGCACAGUGAAAUGGACAGAAGGGCAGAGCAA [U3C U4C G5C C6U G8C C9U U10C] | 0.521 |
| AGUUGAAGAAGGGAGCUCCAGCAAGGUGAAAUGGACAGAAGGGCAGAGCAA [C6A U7A C9A U10A C24A A25G] | 0.796 |
| AGUUGAAGAAGGGAGCUCCAGCAAUGUGAAAUGGACAGAAGGGCAGAGCAA [C6A U7A C9A U10A C24A A25U] | 0.754 |
| AGUUCACACAGGGAGCUCCAGCACAGUGAAAUGGGAAGAAGGGCAGAGCAA [G5C C6A U7C G8A U10A A35G C36A] | 0.0625 |
| AGCUAUAUAUGGGAGCUCCAGCACAGUGAAAUGGACAGAAGGGCAGAGCAA [U3C G5A C6U U7A G8U C9A] | 0.098 |
| AGUUAGGGAUGGGAGCUCCAGCACAUCGAAAUGGACAGAAGGGCAGAGCAA [G5A C6G U7G C9A G26U U27C] | 0.0253 |
| AGUUAUAUAUGGGAGCUCCAGCACAGUGAAACUGACAGAAGGGCAGAGCAA [G5A C6U U7A G8U C9A U32C G33U] | 0.0226 |
| AGUUACCCUCGGGAGCUCCAGCACAGUGAAAUGGACAGAAGGGCAGAGCAA [G5A U7C G8C C9U U10C] | 1.27 |
| AGUUCUUCUCGGAUGCUCCAGCACAGUGAAAUGGACAGAAGGGCAGAGCAA [G5C C6U G8C C9U U10C G13A A14U] | 2.38 |
| AGUUUCUUUUGGGAGCUCCAGCACAGUGCCAUGGACAGAAGGGCAGAGCAA [G5U G8U C9U A29C A30C] | 0.344 |
| AGUUAUAUAUGGGAGCUCCAGCACAGUGAAAUGGACAGGGGGGCAGAGCAA [G5A C6U U7A G8U C9A A39G A40G] | 0.00821 |
| AGUUGACGACGGGAGCUCCAGCUCAGUGAAAUGGACAGAAGGGCAGAGCAA [C6A U7C C9A U10C A23U] | 2.78 |
